Source: patent US20240002497A1

What was measured:
[1] = molecular target: huNav1.7α (human Nav1.7 alpha subunit, expressed without β subunits) (human) (UniProt Q15858); test: FACS, HEK293 cells; SD MFI 2
[2] = molecular target: huNav1.7α + β1 (human Nav1.7α co-expressed with Navβ1) (human) (UniProt Q15858); test: FACS, HEK293 cells; SD MFI 6
[3] = molecular target: huNav1.7α + β1-β2-β3 (human Nav1.7α co-expressed with Navβ1, Navβ2 and Navβ3) (human) (UniProt Q15858); test: FACS, CHO Flp-In cells; SD MFI 12

Substance: Negative control (Table 33)
- Mean MFI [1]: 723 MFI
- Mean MFI [2]: 778 MFI
- Mean MFI [3]: 566 MFI
